Results from the supplement of paper PMC6379048.

How the values were obtained:
Assay in all cases: Kd (EC50 corrected by depletion factor)
[1] = molecular target: T1, CPSF1 (UniProt Q10570)
T1 sequence: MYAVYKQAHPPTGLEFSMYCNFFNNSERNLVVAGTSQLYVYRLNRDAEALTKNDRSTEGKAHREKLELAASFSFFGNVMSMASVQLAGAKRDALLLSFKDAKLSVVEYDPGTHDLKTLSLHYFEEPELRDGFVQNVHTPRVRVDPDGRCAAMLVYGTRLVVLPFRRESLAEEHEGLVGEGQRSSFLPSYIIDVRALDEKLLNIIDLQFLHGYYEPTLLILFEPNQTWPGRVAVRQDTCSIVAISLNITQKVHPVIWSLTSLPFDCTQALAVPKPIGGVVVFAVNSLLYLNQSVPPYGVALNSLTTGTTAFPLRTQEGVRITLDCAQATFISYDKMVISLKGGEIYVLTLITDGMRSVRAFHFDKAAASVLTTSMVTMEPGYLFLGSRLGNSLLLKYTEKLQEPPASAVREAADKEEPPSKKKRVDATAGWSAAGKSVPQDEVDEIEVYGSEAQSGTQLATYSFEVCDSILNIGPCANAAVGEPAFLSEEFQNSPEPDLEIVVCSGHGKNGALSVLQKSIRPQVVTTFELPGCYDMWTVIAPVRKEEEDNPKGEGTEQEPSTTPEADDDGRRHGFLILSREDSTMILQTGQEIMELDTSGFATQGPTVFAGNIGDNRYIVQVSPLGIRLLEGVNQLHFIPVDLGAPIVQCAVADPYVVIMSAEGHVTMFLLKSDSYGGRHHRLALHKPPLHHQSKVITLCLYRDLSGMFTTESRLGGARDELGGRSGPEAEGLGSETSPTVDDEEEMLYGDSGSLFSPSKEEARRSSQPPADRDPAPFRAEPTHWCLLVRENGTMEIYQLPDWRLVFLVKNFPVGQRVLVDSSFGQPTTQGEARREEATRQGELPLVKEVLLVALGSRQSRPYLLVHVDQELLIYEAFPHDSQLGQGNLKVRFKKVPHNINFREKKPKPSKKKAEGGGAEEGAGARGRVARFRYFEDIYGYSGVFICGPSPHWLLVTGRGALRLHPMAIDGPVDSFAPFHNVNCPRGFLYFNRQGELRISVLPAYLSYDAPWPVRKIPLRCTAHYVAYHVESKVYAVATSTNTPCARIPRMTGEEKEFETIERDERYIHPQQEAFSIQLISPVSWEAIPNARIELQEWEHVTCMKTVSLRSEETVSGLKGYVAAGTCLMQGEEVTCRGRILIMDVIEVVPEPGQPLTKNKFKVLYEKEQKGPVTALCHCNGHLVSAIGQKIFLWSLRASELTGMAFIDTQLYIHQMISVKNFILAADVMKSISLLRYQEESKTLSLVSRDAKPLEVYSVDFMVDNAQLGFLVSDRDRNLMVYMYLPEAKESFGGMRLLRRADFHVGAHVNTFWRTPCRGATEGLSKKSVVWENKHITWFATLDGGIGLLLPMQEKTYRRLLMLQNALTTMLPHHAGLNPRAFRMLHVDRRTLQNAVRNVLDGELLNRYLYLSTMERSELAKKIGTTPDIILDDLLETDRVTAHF
Method in brief: (§1)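 HEK293-FT lysate (2.5 mg protein/well) was treated with free RNA oligos (0 nM to 30 μM) for 1 h at 4°C, then with the same oligos on NHS-Sepharose beads for 30 min at 4°C. Bound proteins were quantified by label-free LC-MS/MS relative to the control. EC50 came from a four-parameter log-logistic fit, and Kd is EC50 times a protein-dependent depletion factor.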

[2] = molecular target: T2, FUBP3 (UniProt Q96I24)
T2 sequence: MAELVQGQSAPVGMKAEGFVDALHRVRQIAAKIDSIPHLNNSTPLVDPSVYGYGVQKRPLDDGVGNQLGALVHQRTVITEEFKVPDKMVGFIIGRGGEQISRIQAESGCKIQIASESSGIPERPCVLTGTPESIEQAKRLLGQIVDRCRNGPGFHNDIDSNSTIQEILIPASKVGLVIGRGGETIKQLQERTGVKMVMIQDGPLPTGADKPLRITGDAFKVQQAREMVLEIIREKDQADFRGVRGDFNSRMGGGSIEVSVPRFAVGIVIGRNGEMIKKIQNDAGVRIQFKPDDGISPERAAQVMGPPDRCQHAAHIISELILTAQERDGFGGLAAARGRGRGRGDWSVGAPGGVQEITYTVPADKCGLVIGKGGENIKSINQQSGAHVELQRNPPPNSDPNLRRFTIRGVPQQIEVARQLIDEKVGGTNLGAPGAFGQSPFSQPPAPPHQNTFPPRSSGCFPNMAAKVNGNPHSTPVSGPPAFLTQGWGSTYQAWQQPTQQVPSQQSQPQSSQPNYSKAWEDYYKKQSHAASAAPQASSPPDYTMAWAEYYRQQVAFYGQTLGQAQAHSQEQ
Method in brief: as §1

[3] = molecular target: T3, HNRNPDL (UniProt O14979)
T3 sequence: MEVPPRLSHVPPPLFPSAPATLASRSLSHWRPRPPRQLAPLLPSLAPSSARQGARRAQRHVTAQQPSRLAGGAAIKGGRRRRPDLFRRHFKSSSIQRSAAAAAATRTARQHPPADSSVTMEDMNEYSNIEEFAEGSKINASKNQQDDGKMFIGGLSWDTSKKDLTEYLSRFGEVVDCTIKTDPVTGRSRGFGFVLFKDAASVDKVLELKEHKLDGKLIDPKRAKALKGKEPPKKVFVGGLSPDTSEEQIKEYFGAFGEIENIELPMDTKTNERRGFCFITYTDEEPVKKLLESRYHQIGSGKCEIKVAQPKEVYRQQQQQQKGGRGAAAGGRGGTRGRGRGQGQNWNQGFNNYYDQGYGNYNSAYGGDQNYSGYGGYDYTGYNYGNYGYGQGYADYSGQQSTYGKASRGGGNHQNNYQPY
Method in brief: as §1

Sequence | Kd [1] [nM] | Kd [2] [nM] | Kd [3] [nM]
AAUAAA | 6.97 | 245 | 152
UAUUUAU | 340 | 241 | 2360
